T1: human CXCR5 (human, UniProt P32302 1-372)
T1 construct: also called hCXCR5; C-X-C chemokine receptor type 5
T1 sequence: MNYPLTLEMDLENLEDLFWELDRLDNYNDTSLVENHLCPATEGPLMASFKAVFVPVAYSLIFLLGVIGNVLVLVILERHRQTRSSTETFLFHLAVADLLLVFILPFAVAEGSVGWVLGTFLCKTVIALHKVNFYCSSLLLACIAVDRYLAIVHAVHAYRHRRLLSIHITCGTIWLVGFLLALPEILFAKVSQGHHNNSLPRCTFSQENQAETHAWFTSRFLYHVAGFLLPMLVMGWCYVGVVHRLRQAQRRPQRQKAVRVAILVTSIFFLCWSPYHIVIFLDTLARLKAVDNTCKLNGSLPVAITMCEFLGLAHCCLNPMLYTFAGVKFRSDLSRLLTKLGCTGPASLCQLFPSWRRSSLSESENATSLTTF

T2: cynomolgus monkey CXCR5 (cynomolgus monkey, UniProt P32302 1-372 (human entry))
T2 construct: also called cynoCXCR5; NHP CXCR5
T2 chain: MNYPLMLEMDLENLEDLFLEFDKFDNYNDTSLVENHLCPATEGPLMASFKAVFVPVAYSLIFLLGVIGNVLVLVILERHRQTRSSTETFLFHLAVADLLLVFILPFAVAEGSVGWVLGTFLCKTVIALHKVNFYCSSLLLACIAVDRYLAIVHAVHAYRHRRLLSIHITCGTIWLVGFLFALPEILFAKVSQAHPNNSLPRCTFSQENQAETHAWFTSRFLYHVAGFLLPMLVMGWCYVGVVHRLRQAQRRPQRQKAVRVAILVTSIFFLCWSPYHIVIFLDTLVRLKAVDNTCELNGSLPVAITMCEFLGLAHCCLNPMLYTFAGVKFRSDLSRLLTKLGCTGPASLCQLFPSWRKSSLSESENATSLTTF

T3: CXCR1 (human, UniProt P25024 1-350)
T3 construct: whole, on cells
T3 sequence (looked up): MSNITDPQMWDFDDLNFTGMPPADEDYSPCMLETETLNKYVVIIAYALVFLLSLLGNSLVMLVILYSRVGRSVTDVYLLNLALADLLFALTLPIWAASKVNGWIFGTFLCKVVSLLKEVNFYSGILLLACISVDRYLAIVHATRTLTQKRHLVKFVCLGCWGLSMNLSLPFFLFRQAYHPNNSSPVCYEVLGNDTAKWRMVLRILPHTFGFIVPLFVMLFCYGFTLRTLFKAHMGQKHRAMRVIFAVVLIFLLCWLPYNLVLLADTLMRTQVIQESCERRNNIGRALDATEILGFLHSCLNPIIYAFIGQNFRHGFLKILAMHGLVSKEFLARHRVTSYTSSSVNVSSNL

T4: CXCR2 (human, UniProt P25025 1-360)
T4 construct: whole, on cells
T4 sequence (looked up): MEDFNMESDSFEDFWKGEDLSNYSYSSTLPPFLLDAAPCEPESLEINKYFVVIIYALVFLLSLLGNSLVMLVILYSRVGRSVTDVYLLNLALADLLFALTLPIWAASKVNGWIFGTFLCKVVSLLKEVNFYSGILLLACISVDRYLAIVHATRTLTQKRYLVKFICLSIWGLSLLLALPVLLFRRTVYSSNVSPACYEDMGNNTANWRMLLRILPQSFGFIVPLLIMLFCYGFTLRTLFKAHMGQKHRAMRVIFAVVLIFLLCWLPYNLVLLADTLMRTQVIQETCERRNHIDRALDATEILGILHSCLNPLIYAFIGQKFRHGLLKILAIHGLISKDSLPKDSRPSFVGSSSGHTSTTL

T5: CXCR3 (human, UniProt P49682 1-368)
T5 construct: whole, on cells
T5 sequence (looked up): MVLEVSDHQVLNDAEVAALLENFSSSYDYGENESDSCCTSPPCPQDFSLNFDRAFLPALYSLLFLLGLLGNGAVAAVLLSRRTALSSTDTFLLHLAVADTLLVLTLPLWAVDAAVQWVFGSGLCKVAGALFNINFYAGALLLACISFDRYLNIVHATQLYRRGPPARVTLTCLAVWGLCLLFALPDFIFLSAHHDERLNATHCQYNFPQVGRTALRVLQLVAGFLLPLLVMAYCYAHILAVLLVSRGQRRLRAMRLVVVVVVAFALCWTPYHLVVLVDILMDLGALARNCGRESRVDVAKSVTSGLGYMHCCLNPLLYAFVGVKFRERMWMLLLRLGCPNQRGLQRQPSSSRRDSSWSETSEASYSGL


Legend:
human CXCR5 [1] = target: T1, human CXCR5; experiment: flow cytometry on Raji cells, fucosylated chimeric antibody
Description: The fucosylated chimeric antibodies were then purified using protein A columns. The apparent affinity (cell binding EC50s) of chimeric antibody binding to Raji cells was determined by flow cytometry using a FACSVerse Analyzer (BD Bioscience, Franklin Lakes, N.J.) and are shown in Table 3.

cynomolgus monkey CXCR5 [2] = target: T2, cynomolgus monkey CXCR5; experiment: flow cytometry on cynoCXCR5-300.19 cells, fucosylated chimeric antibody
CXCR1 = target: T3, CXCR1; experiment: flow cytometry (GMFI) on fixed CXCR1 cells, chimeric antibody, goat anti-human PE
Description: (§1) To determine the specificity of the antibodies for CXCR5, the binding of the antibodies to cells expressing other […] was assessed. Briefly, FlowCellect chemokine receptor cell lines expressing CXCR1, CXCR2, or CXCR3 (EMD Millipore, Billerica, Mass.), and Jurkats (ATCC, Manassas, Va.), which express CXCR4, were stained with 5 μg/ml or 10 μg/ml of each anti-CXCR5 chimeric antibody. The cells were then incubated with goat anti-human conjugated with PE (Southern Biotech, Birmingham, Ala.) prior to analysis by flow cytometry using a FACSVerse Analyzer (BD Biosciences, Franklin Lakes, N.J.).

CXCR2 = target: T4, CXCR2; experiment: flow cytometry (GMFI) on fixed CXCR2 cells, chimeric antibody, goat anti-human PE
Description: as §1

CXCR3 = target: T5, CXCR3; experiment: flow cytometry (GMFI) on fixed CXCR3 cells, chimeric antibody, goat anti-human PE
Description: as §1

CXCR4 = target: T6, CXCR4 (human, UniProt P61073 1-352); experiment: flow cytometry (GMFI) on Jurkat cells, which express CXCR4; chimeric antibody, goat anti-human PE
T6 construct: whole, on cells
Description: as §1

human CXCR5 [3] = target: T1, human CXCR5; experiment: cell-based or functional assay
human CXCR5 [4] = target: T1, human CXCR5; experiment: flow cytometry, human PBMC B cells
Description: (§2) The apparent affinity for cell surface CXCR5 of chimeric and humanized CXCR5 fucosylated and afucosylated antibodies was assessed. More specifically, to determine the apparent affinity of chimeric and humanized CXCR5 antibodies to CXCR5-expressing cells, cell binding experiments were performed on human and cynomolgus monkey peripheral blood mononuclear cells (PBMCs) and human tonsillar mononuclear cells (TMCs). The apparent affinity of CXCR5 mab binding to CXCR5+ cells (B cells, bona fide Tfh cells, and circulating Tfh-like cells) was calculated as the EC50 of equilibrium binding titration curves in which the geometric mean fluorescence intensity (gMFI) of the antigen binding population was quantified by flow cytometry.
(§3) Following isolation, PBMCs were plated at a density of 1.0×10⁵ cells per well and CD4+ TMCs were plated at a density of 2.0×10⁵ cells per well in isolation buffer (PBS containing 1% FBS and 1 mM EDTA) in 96 well U-bottom plates. The plates were then centrifuged at 1500 rpm for 5 minutes at room temperature. PBMCs and CD4+ TMCs were resuspended in Fluorescence-activated cell sorting (FACS) buffer (PBS containing 1% FBS) containing human crystallized fragment Fc block (2 μL per well; Biolegend) and 4-fold serial dilutions of the antibodies (11-point dilution series, beginning at 5000 ng/mL for PBMCs and 312.5 ng/mL for CD4+ TMCs) and incubated on ice for 2 hours. PBMCs and CD4+ TMCs were then washed with FACS buffer 3 times and resuspended in 50-100 μL of FACs buffer containing fluorescent-conjugated antibodies for staining lymphocyte subsets and a fluorescent-conjugated secondary antibody against human Ig to detect CXCR5 monoclonal antibodies (mAbs). After incubation for 30 minutes at 4° C., PBMCs and CD4+ TMCs were washed with FACS buffer 2 times and resuspended in 125 μL of 0.5% paraformaldehyde (PFA) in PBS. Plates were stored at 4° C. until analysis by flow cytometry (BD LSRFortessa™ Cell Analyzer, BD Biosciences, Franklin Lakes, N.J.).
(§4) The cell binding titration curves were generated by plotting the gMFI of the antigen binding population against the log of CXCR5 antibody concentration. EC₅₀ values were determined using GraphPad Prism® (version 6.0, GraphPad Software, Inc, San Diego, Calif.) nonlinear-regression curve fits and a sigmoidal log of agonist dose-response model, according to the following equation

cynomolgus monkey CXCR5 [5] = target: T2, cynomolgus monkey CXCR5; experiment: flow cytometry, cynomolgus PBMC B cells
Description: as §2, §3, §4

T6 sequence (P61073 whole entry): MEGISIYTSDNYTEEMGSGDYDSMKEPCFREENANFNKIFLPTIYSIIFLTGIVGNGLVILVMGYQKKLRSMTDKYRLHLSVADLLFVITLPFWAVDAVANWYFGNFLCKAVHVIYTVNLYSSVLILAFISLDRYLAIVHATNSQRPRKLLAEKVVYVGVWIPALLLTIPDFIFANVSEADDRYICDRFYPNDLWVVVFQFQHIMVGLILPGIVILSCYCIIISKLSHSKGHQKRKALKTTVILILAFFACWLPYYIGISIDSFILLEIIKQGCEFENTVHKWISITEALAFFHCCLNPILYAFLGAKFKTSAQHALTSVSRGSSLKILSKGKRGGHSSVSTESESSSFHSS

EC50 (human CXCR5 [1]) [pM]	EC50 (cynomolgus monkey CXCR5 [2]) [pM]	ADCC Activity Average EC50, Human B Cells (human CXCR5 [3]) [pM]	EC50 (human CXCR5 [4]) [pM]	EC50 (cynomolgus monkey CXCR5 [5]) [pM]	Binder	binding result (CXCR1)	binding result (CXCR2)	binding result (CXCR3)	binding result (CXCR4)
42.1	60.3	–	–	–	chimeric 5H7 (antibody, human IgG1, kappa, V domains shown, mouse V regions on human IgG1/kappa; fucosylated; also called 5H7 (chimeric)) VH: EVKLVESGGGLVQPGDSLRLSCATSGFTFTDFYMSWVRQPPGRALEWLGFIRNKANGYTTEYSASVKGRFTISRDNSQSILYLQMNTLRAGDSATYYCVRVYGSTLHYWGQGTILTVSS VL: DVVVTQSPDSLAVSLGQRATISCRASESVEYHGTSLMHWYQQKPGQPPKLLIYAASNVESGVPARFSGSGSGTDFSLNIHPVEEGDVSMFFCQQSRKVPWTFGGGTKLEIKR	no binding (tested: 5 or 10 µg/ml (not on the sheet))	no binding (tested: 5 or 10 µg/ml (not on the sheet))	no binding (tested: 5 or 10 µg/ml (not on the sheet))	no binding (tested: 5 or 10 µg/ml (not on the sheet))
390	831	11700	161	549	Chimeric 41A10 (antibody, human IgG1, kappa, V domains shown, mouse V regions on human IgG1/kappa; fucosylated; also called 41A10 (chimeric)) VH: EVQLVESGGDLVKPGGSLKLSCAASGFTFRSYGMSWVRQTPDKRLEWVATISSGGTYTFYPDILKGRITISRDNAKNTLYLQMSNLKSEDTAMYYCARRGEDYRGALEHWGQGTSVTVSS VL: QIVLTQSPAVMSASPGEKVTMTCSASSSVNYIHWYQQKSGTSPKRWIYETSRLASGVPVRFSGSGSGTSYSLTISTMEAEDAATYYCQQWSSNPLTFGAGTKLELKR	no binding (tested: 5 or 10 µg/ml (not on the sheet))	no binding (tested: 5 or 10 µg/ml (not on the sheet))	no binding (tested: 5 or 10 µg/ml (not on the sheet))	–

— US20210101970A1 (Pfizer, published 2021)
